Results: patent US6939707B2, “Isolated nucleic acid molecules which encode GAGE genes and uses thereof” (Ludwig Institute for Cancer Research, priority 1993, dated 2005)

B1: GAGE-3: cDNA highly related to GAGE, from MZ2-MEL.43 library (nucleic acid)
DNA: CTCATATTTCACACAGATGAGTTGGCGAGGAAGATCGACCTATTATTGGTCTAGGCCAATAATAGGTCGATCTTCCTCGCCAACTCATATTTCACACAGATGAATCTCAGTAGAGGAAAATCGACCTATTATTGGCCTAGACCAAGGCGCTATGTACAGCCTCCTGAAGTGATTGGGCCTATGCGGCCCGAGCAGTTCAGTGATGAAGTGGAACCAGCAACACCTGAAGAAGGGGAACCAGCAACTCAACGTCAGGATCCTGCAGCTGCTCAGGAGGGAGAGGATGAGGGAGCATCTGCAGGTCAAGGGCCGAAGCCTGAAGCTGATAGCCAGGAACAGGGTCACCCACAGACTGGGTGTGAGTGTGAAGATGGTCCTGATGGGCAGGAGATGGACCCGCCAAATCCAGAGGAGGTGAAAACGCCTGAAGAAGGTGAAAAGCAATCACAGTGTTAAAAGAAGGCACGTTGAAATGATGCAGGCTGCTCCTATGTTGGAAATTTGTTCATTAAAATTCTCCCAATAAAGCTTTACAGCCTTCTGCAAAGAAAAAAAAAAAA
B2: GAGE-4: cDNA highly related to GAGE, from MZ2-MEL.43 library (nucleic acid)
DNA: CGCCAGGGAGCTGTGAGGCAGTGCTGTGTGGTTCCTGCCGTCCGGACTCTTTTTCCTCTACTGAGATTCATCTGTGTGAAATATGAGTTGGCGAGGAAGATCGACCTATTATTGGCCTAGACCAAGGCGCTATGTACAGCCTCCTGAAATGATTGGGCCTATGCGGCCCGAGCAGTTCAGTGATGAAGTGGAACCAGCAACACCTGAAGAAGGGGAACCAGCAACTCAACGTCAGGATCCTGCAGCTGCTCAGGAGGGAGAGGATGAGGGAGCATCTGCAGGTCAAGGGCCGAAGCCTGAAGCTGATAGCCAGGAACAGGGTCACCCACAGACTGGGTGTGAGTGTGAAGATGGTCCTGATGGGCAGGAGATGGACCCGCCAAATCCAGAGGAGGTGAAAACGCCTGAAGAAGGTGAAAAGCAATCACAGTGTTAAAAGAAGGCACGTTGAAATGATGCAGGCTGCTCCTATGTTGGAAATTTGTTCATTAAAATTCTCCCAATAAAGCTTTACAGCCTTCTGCAAAAAAAAAAAAAAAA
B3: GAGE-2: cDNA highly related to GAGE, from MZ2-MEL.43 library (nucleic acid)
DNA: ACGCCAGGGAGCTGTGAGGCAGTGCTGTGTGGTTCCTGCCGTCCGGACTCTTTTTCCTCTACTGAGATTCATCTGTGTGAAATATGAGTTGGCGAGGAAGATCGACCTATCGGCCTAGACCAAGACGCTACGTAGAGCCTCCTGAAATGATTGGGCCTATGCGGCCCGAGCAGTTCAGTGATGAAGTGGAACCAGCAACACCTGAAGAAGGGGAACCAGCAACTCAACGTCAGGATCCTGCAGCTGCTCAGGAGGGAGAGGATGAGGGAGCATCTGCAGGTCAAGGGCCGAAGCCTGAAGCTCATAGCCAGGAACAGGGTCACCCACAGACTGGGTGTGAGTGTGAAGATGGTCCTGATGGGCAGGAGATGGACCCGCCAAATCCAGAGGAGGTGAAAACGCCTGAAGAAGGTGAAAAGCAATCACAGTGTTAAAAGAAGACACGTTGAAATGATGCAGGCTGCTCCTATGTTGGAAATTTGTTCATTAAAATTCTCCCAATAAAGCTTTACAGCCTTCTGCAAAGAAAAAAAAAAAA
B4: GAGE-5: cDNA highly related to GAGE, from MZ2-MEL.43 library (nucleic acid)
DNA: AGCTGTGAGGCAGTGCTGTGTGGTTCCTGCCGTCCGGACTCTTTTTCCTCTACTGAGATTCATCTGTGTGAAATATGAGTTGGCGAGGAAGATCGACCTATTATTGGCCTAGACCAAGGCGCTATGTACAGCCTCCTGAAGTGATTGGGCCTATGCGGCCCGAGCAGTTCAGTGATGAAGTGGAACCAGCAACACCTGAAGAAGGGGAACCAGCAACTCAACGTCAGGATCCTGCAGCTGCTCAGGAGGGAGAGGATGAGGGAGCATCTGCAGGTCAAGGGCCGAAGCCTGAAGCTGATAGCCAGGAACAGGGTCACCCACAGACTGGGTGTGAGTGTGAAGATGGTCCTGATGGGCAGGAGATGGACCCGCCAAATCCAGAGGAGGTGAAAACGCCTGAAGAAGGTGAAAAGCAATCACAGTGTTAAAAGAAGGCACGTTGAAATGATGCAGGCTGCTCCTATGTTGGAAATTTGTTCATTAAAATTCTCCCAATAAAGCTTTACAGCCTTCTGCAAAGAAAAAAAAAAAA
B5: GAGE-1: cDNA coding for GAGE tumor rejection antigen precursor, SEQ ID NO: 1 (nucleic acid)
DNA: CTGCCGTCCGGACTCTTTTTCCTCTACTGAGATTCATCTGTGTGAAATATGAGTTGGCGAGGAAGATCGACCTATCGGCCTAGACCAAGACGCTACGTAGAGCCTCCTGAAATGATTGGGCCTATGCGGCCCGAGCAGTTCAGTGATGAAGTGGAACCAGCAACACCTGAAGAAGGGGAACCAGCAACTCAACGTCAGGATCCTGCAGCTGCTCAGGAGGGAGAGGATGAGGGAGCATCTGCAGGTCAAGGGCCGAAGCCTGAAGCTGATAGCCAGGAACAGGGTCACCCACAGACTGGGTGTGAGTGTGAAGATGGTCCTGATGGGCAGGAGATGGACCCGCCAAATCCAGAGGAGGTGAAAACGCCTGAAGAAGAGATGAGGTCTCACTATGTTGCCCAGACTGGGATTCTCTGGCTTTTAATGAACAATTGCTTCTTAAATCTTTCCCCACGGAAACCTTGAGTGACTGAAATATCAAATGGCGAGAGACCGTTTAGTTCCTATCATCTGTGGCATGTGAAGGGCAATCACAGTGTTAAAAGAAGACATGCTGAAATGTTGCAGGCTGCTCCTATGTTGGAAAATTCTTCATTGAAGTTCTCCCAATAAAGCTTTACAGCCTTCTGCAAAGAAAAAAAAAAAA
B6: GAGE-6: cDNA highly related to GAGE, from MZ2-MEL.43 library (nucleic acid)
DNA: GCCAGGGAGCTGTGAGGCAGTGCTGTGTGGTTCCTGCCGTCCGGACTCTTTTTCCTCTACTGAGATTCATCTGTGTGAAATATGAGTTGGCGAGGAAGATCGACCTATTATTGGCCTAGACCAAGGCGCTATGTACAGCCTCCTGAAGTGATTGGGCCTATGCGGCCCGAGCAGTTCAGTGATGAAGTGGAACCAGCAACACCTGAAGAAGGGGAACCAGCAACTCAACGTCAGGATCCTGCAGCTGCTCAGGAGGGAGAGGATGAGGGAGCATCTGCAGGTCAAGGGCCGAAGCCTGAAGCTGATAGCCAGGAACAGGGTCACCCACAGACTGGGTGTGAGTGTGAAGATGGTCCTGATGGGCAGGAGGTGGACCCGCCAAATCCAGAGGAGGTGAAAACGCCTGAAGAAGGTGAAAAGCAATCACAGTGTTAAAAGAAGACACGTTGAAATGATGCAGGCTGCTCCTATGTTGGAAATTTGTTCATTAAAATTCTCCCAATAAAGCTTTACAGCCTTCTGCAAAAAAAAAAAAAAAA

These molecules were tested on CTL 22/23 (assay: TNF production by CTL 22/23 on COS-7 cells cotransfected with HLA-A29 and GAGE cDNA). Settings: COS-7 cells transfected with HLA-A29 and the cDNA, 24 hours (FIG. 7).
Format: cell-based, human
Method: (§1) Following this change in medium, COS cells were incubated for 24-48 hours at 37° C. Medium was then discarded, and 1000-3000 cells of CTL clone 76/6 were added, in 100 μl of Iscove's medium containing 10% pooled human serum supplemented with 20-30 U/ml of recombinant IL-2. Supernatant was removed after 24 hours, and TNF content was determined in an assay on WEHI cells, as described by Traversari et al., Immunogenetics 35: 145-152 (1992), the disclosure of which is incorporated by reference.
Once positive HLA-A29 clones were isolated, these were transfected into COS-7 using the DEAE-dextran chloroquine method out supra. In brief, 1.5×10^4 COS-7 cells were treated with 50 ng of plasmid pcDNA-I/Amp containing HLA-A29, and 100 ng of cDNA containing cDNA for one of the GAGE sequences mentioned supra, or one of the prior art MAGE or BAGE sequences in plasmid pcDNAα-I/Amp or pcDSR-α, respectively. The transfectants were then incubated for 24 hours at 37° C.
The transfectants were then tested for their ability to stimulate TNF production by CTLs, using the assay explained at the end of example, 4, supra.
In the case of B1, the “stimulation of TNF production by CTL clone 22/23” value (“stimulation of TNF production” below) is reported as “high levels of TNF production”.
For B2, the “stimulation of TNF production” value was “high levels of TNF production”.
For B3, the “stimulation of TNF production” value was “do not stimulate CTL clone 22/23”.
For B4, the “stimulation of TNF production” value was “high levels of TNF production”.
With B5 the “stimulation of TNF production” value was “do not stimulate CTL clone 22/23”.
For B6, the “stimulation of TNF production” value was “high levels of TNF production”.

The molecules below were run on CTL 76/6 (assay: TNF release / recognition by CTL 76/6 of COS cells cotransfected with GAGE cDNA and HLA-Cw6 cDNA). Settings: COS cells transfected with cDNA together with HLA-Cw6 cDNA (FIG. 2, FIG. 6).
Format: cell-based, human
Method: Following preparation of the library described in Example 3, the cDNA was transfected into eukaryotic cells. The transfections, described herein, were carried out in duplicate. Samples of COS-7 cells were seeded, at 15,000 cells/well into tissue culture flat bottom microwells, in Dulbecco's modified Eagles Medium (“DMEM”) supplemented with 10% fetal calf serum. The cells were incubated overnight at 37° C., medium was removed and then replaced by 50 μl/well of DMEM medium containing 10% Nu serum, 400 μg/ml DEAE-dextran, and 100 μM chloroquine, plus 100 ng of the plasmids. […] As a result, cDNA for each of the HLA molecules which could present the antigen (A1, B37, Cw6) was used, separately, to cotransfect the cells. Specifically, one of 28 ng of the gene encoding HLA-A1 cloned into pCD-SRα, 50 ng of cDNA for HLA-B37 in pcDNA 1/Amp, or 75 ng of cDNA for HLA-Cw6 in pcDNAI-Amp, using the same protocols as were used for transfeclion with the library.
Transfection was carried out in duplicate wells, but only 500 pools of the HLA-Cw6 transfectants could be tested in single wells. Following four hours of incubation at 37° C., the medium was removed, and replaced by 50 μl of PBS containing 10% DMSO. This medium was removed after two minutes and replaced by 200 μl of DMEM supplemented with 10% FCS.
as §1
The bacteria of the selected pool were cloned, and 600 clones were tested. Plasmid DNA was extracted therefrom, transfected into a new sample of COS cells in the same manner as described supra, and the cells were again tested for stimulation of CTL clone 76/6. Ninety-four positive clones were found. One of these, referred to as cDNA clone 2D6, was tested further. In a comparative test COS cells were transfected with cDNA clone 2D6 and the HLA-Cw6 cDNA, HLA-Cw6 cDNA alone, or cDNA 2D6 alone. Control cell lines MZ2-MEL F and MZ2-MEL F^+ were also used. TNF release into CTL supernatant was measured by testing it on WEHI cells, as referred to supra. The number of surviving WEHI cells was measured by optical density after incubation of the cells with MTT.
To assess whether the change at position 2 affected the antigenicity of the peptide, cDNA of the 6 GAGE cDNAs were individually transfected into COS cells together with the cDNA of HLA-Cw6, and the transfectants were tested for recognition by CTL 76/6 as described, supra. Only GAGE-1 and GAGE-2 transfected cells were recognized, showing that the modified peptide encoded by GAGE-3, 4, 5 and 6 was not antigenic in the context of this experiment.
With B1 the “recognition by CTL 76/6 (TNF release)” value was “not antigenic”.
With B2 the “recognition by CTL 76/6 (TNF release)” value was “not antigenic”.
In the case of B3, the “recognition by CTL 76/6 (TNF release)” value is reported as “recognized”.
For B4, the “recognition by CTL 76/6 (TNF release)” value was “not antigenic”.
In the case of B5, the “recognition by CTL 76/6 (TNF release)” value is reported as “recognized”.
In the case of B6, the “recognition by CTL 76/6 (TNF release)” value is reported as “not antigenic”.

Same assay, conditions: COS cells transfected with cDNA together with HLA-Cw6 cDNA (FIG. 2, FIG. 6); listed as cDNA clone 2D6
In the case of B5, the “recognition by CTL 76/6 (TNF release)” value is reported as “stimulated TNF release”.
